In US20240287172A1 (SCIRHOM, published 2024):
Where a chain is given by its changes, count along the chain named.

T1: human iRhom2, endogenously expressed (human, UniProt Q6PJF5 1-856)
T1 sequence: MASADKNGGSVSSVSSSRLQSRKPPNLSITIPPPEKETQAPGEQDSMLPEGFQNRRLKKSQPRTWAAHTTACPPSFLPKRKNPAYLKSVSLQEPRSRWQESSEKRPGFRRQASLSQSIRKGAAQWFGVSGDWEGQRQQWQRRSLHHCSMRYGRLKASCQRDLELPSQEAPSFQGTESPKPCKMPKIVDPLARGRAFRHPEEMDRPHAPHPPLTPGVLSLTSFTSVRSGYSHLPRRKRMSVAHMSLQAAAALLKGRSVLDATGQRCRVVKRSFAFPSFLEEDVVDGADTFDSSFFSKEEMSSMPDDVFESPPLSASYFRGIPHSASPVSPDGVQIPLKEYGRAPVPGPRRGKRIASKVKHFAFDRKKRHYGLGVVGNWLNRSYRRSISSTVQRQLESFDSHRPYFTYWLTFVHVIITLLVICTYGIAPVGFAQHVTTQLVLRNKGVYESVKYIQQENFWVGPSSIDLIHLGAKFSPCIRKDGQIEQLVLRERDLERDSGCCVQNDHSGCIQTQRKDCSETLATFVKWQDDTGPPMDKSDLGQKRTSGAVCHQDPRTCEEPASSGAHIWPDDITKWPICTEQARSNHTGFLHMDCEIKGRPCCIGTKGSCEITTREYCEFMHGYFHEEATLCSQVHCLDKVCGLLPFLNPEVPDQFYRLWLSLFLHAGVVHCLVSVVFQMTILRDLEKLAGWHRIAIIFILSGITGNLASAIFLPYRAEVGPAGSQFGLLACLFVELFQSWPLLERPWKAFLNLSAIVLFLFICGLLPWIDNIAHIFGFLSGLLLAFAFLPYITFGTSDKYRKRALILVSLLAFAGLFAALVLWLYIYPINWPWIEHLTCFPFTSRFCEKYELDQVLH

T2: dog iRhom2 full length wild type, T7-tagged (dog, UniProt Q00M95 1-827)
T2 construct: whole, on cells; on MEF-DKO cells; also called Dog-iR2-FL-WT-T7
T2 sequence: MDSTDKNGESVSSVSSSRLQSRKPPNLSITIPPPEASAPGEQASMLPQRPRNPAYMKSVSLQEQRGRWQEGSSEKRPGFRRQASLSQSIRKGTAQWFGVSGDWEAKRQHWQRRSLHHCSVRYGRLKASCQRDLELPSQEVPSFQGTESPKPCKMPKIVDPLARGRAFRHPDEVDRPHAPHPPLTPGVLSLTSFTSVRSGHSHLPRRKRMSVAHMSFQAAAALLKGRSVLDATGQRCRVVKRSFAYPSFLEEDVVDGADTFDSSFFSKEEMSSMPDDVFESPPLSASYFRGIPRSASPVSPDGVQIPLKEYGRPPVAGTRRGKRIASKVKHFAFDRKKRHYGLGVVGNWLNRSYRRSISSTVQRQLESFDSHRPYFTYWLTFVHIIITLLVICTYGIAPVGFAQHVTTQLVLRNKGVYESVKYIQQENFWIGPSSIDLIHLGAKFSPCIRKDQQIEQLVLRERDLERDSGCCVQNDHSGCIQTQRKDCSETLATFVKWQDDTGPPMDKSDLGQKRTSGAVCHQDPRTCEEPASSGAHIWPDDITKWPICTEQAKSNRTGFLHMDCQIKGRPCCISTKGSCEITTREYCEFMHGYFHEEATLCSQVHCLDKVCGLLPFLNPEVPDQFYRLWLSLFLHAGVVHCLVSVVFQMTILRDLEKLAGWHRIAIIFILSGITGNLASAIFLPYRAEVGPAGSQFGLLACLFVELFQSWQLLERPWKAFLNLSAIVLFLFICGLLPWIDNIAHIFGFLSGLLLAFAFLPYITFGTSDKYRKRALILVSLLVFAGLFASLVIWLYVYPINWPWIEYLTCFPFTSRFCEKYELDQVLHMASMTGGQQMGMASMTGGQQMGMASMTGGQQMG

T3: human iRhom1, endogenously expressed (human, UniProt Q96CC6 1-855)
T3 construct: also called iRhom1 on RH-30 cells
T3 sequence: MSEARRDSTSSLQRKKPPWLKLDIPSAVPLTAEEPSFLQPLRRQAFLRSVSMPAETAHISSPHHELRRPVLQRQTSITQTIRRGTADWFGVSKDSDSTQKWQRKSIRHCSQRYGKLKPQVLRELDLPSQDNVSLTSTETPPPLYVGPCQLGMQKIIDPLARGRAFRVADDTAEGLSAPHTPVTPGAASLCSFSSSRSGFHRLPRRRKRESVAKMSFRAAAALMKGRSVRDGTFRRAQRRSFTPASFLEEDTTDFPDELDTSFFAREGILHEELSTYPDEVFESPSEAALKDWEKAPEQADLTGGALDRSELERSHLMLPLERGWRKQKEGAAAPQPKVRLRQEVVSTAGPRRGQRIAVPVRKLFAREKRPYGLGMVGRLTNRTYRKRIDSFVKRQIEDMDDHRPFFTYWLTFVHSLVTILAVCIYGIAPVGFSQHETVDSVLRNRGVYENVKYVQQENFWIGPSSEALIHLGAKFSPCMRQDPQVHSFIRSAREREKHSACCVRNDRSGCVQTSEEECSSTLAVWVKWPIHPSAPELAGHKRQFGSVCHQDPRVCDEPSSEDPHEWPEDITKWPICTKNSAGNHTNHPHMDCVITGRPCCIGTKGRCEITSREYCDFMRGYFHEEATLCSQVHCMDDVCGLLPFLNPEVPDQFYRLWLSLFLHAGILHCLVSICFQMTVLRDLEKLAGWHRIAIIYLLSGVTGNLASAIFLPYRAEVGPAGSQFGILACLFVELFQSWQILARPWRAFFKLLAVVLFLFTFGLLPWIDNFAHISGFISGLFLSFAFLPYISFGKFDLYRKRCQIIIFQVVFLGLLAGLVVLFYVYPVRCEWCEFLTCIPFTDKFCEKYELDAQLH

B1: chimeric antibody 22 (antibody, V domains shown)
VH: QVTLKESGPGILQPSQTLSLTCSFSGFSLSTFGMGVGWIRQPSGKGLEWLAHIWWDDEKYYNSALKSRLTISKATSKNQVFLKIANVDTADTATYYCARISNYGSNYWYFNVWGTGTTVTVSS
VL: QVVLTQSPALMSASPGEKVTMTCSAGSSVSYMYWYQQKPGSSPRVLIYDTSNLASGVPARFTGSGSGTSYSLTISRMEAEDAATYYCQQWNSYPLTFGAGTKLELK
B2: chimeric antibody 42 (antibody, V domains shown)
VH: B1 VH with F24L, M34R, S63P, A74D, K83R, S101Q, N111D
VL: LIVLTQSPAIMSASPGEKVTMTCGATSRISYMFWYQQKPGSSPRVLIYDTSNLASGVPVRFSGSGSGTSYSLTISRVEAEDVATYYCQQWNSYPLTFGAGTKLELK
B3: chimeric antibody 44 (antibody, V domains shown)
VH: B1 VH with G44E, E58D, S63P, A74D, V80I, A85T, D91E, A98S, S101G, N111D
VL: B1 VL with V2I, L10V, S24T, G26S, S30Y, K38T, V45L, A59V, T62S, S92T
B4: chimeric antibody 16 (antibody, V domains shown)
VH: QVTLKESGPGILQPSQTLSLTCSFSGFSLSTFALGVGWIRQPSGRGLEWLAHIWWDDDKYYNPALKSRLTISKDTSKNHVFLKIANVDTADTATYYCARITTYYYGMDYWGQGTSVTVSS
VL: DIVLSQSPATLSVTPGDSVSLFCRASQSIGNHLHWYQQESHASPRLLIKYASQSISGIPSRFSGSGSGTDFTLSINSVETEDFGMYFCQQSYNWPLTFGAGTKLELK
notes: chimeric version of clone #16, made in CHO cells, detected with anti-human IgG; also called ch16; chl6 (so in the source)
B5: chimeric antibody 34 (antibody, V domains shown)
VH: QVTLKESGPGILQPSQTLSLTCSFSGFSLSTFSLGVGWIRQSSGKGLEWLAHIWWDDEKYYNPALKSRLTISKDTSKNQVFLKIANVDAADTATYYCARAYYSKSYYALDYWGQGTSVTVSS
VL: DIQMTQSPSSLSASLGERVSLTCRASQEISGYLSWLQQKPDGTIKRLIYAASTLDSGVPKRFSGSRSGSDYSLAISSLESEDFADYYCLQYANFPFTFGSGTKLEIK

Columns and labels:
[1] = biological target: T1, human iRhom2, endogenously expressed; assay: cell-based or functional assay
[2] = biological target: T2, dog iRhom2 full length wild type, …; assay: FACS on MEF-DKO-iR2 Dog cells, 3 µg/ml
Procedure: In brief, immortalized MEF-DKO-EV control cells, MEF-DKO-rhesus-iR2-FL-WT-T7 cells, MEF-DKO-cyno-iR2-FL-WT-T7 cells, MEF-DKO-dog-iR2-FL-WT-T7 cells and MEF-DKO-rabbit-iR2-FL-WT-T7 cells, as well as their respective iRhom1 counterparts, were harvested with 10 mM EDTA in PBS, washed and resuspended in FACS buffer (PBS, 3% FBS, 0.05% sodium azide), and seeded in Nunc U-bottom 96-well plates (Thermo Fisher Scientific, USA) at approximately 3×10⁵ cells per well. To pellet cells and remove supernatants, the plates were centrifuged at 1,500 rpm and 4° C. for 3 minutes. For primary staining, cells were resuspended in 100 μl per well of either FACS buffer alone (controls), mouse monoclonal anti-T7 IgG (Merck Millipore, USA) at 3 μg/ml FACS buffer or the antibodies of the invention also at 3 μg/ml FACS buffer and incubated on ice for 1 hour.
Afterwards, plates were centrifuged at 1,500 rpm and 4° C. for 3 minutes and washed twice with 200 μl per well of FACS buffer. For secondary staining, cells were spun down and resuspended in 100 μl per well of PE-conjugated goat anti-mouse IgG F(ab′)2 detection fragment (Dianova, Germany) diluted 1:100 in FACS buffer. Protected from light, the cell suspensions were incubated on ice for 1 hour. […] Finally, cells were resuspended in 150 μl per well of FACS buffer and analyzed using a BD Accuri™ C6 Plus flow cytometer (Becton Dickinson, Germany).

[3] = biological target: T3, human iRhom1, endogenously expressed; assay: FACS on RH-30 cells (iRhom1-positive, not iRhom2-positive)

Row | Binder | LPS-induced TNFα release from PBMCs of rheumatoid arthritis patients, percent inhibition, 1 µg/ml, chimeric antibody [1] [%] | PMA-induced HB-EGF release from PBMCs of rheumatoid arthritis patients, percent inhibition, 1 µg/ml, chimeric antibody [1] [%] | PMA-induced HB-EGF release from THP-1 cells, percent inhibition, 3 µg/ml [1] [%] | PMA-induced HB-EGF release from U-937 cells, percent inhibition [1] [%] | PMA-induced IL-6R release from PBMCs of rheumatoid arthritis patients, percent inhibition, 1 µg/ml, chimeric antibody [1] [%] | PMA-induced IL-6R release from U-937 cells, percent inhibition, 3 µg/ml [1] [%] | PMA-induced TNFα release from U-937 cells, percent inhibition, 3 µg/ml [1] [%] | binding result [2] | binding result [3]
1 | B1 | 76.5 | 54.7 | 81.9 | 103 | 61.1 | 85.6 | 96.5 |  | 
2 | B2 | 82.1 | 76.1 | 80.8 | 103 | 73.5 | 91.8 | 96.5 |  | 
3 | B3 | 70.2 | 37.8 | 70.7 | 99.2 | 53.1 | 85.2 | 89.2 |  | 
4 | B4 | 83.6 | 66 | 73.6 | 101 | 72.3 | 84.3 | 93.7 | binds | no binding (tested: 3 µg/ml)
5 | B5 | 66.6 | 30.6 | 76.1 | 98.1 | 45.6 | 82.8 | 87.4 |  | 
